Test results from patent US20210079074A1 (Alector, published 2021).
Where a chain is given by its changes, count along the chain named. Names and notes keep the numbering of the source. Read-outs that look alike come from different tables or passages of the source.

B1: anti-MS4A4A antibody 4A-313 K322A huIgG1 (antibody)
heavy: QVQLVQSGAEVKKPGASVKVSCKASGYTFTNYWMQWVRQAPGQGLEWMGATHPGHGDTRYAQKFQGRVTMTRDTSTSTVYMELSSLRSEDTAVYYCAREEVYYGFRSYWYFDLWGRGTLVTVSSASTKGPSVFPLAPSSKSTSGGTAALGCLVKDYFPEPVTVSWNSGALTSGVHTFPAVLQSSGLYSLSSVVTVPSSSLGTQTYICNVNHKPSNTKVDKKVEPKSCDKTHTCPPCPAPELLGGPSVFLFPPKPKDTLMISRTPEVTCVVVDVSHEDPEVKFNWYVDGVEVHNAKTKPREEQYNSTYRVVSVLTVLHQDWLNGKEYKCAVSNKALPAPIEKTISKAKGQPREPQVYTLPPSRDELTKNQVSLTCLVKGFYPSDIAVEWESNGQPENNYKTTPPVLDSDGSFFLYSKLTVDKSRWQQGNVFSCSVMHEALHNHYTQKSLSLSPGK
light: EIVLTQSPATLSLSPGERATLSCRASESVDNYGVSRMNWYQQKPGQAPRLLIYGASNQGSGIPARFSGSGSGTDFTLTISSLEPEDFAVYYCQQSKEVPPTFGGGTKVEIKRTVAAPSVFIFPPSDEQLKSGTASVVCLLNNFYPREAKVQWKVDNALQSGNSQESVTEQDSKDSTYSLSSTLTLSKADYEKHKVYACEVTHQGLSSPVTKSFNRGEC
B2: anti-MS4A4A antibody 4A-333 (antibody, human IgG1, V domains shown)
VH: QVQLVQSGSELKKPGASVKVSCKASGYIFTSYGLSWVRQAPGQGLEWMGWINTYSGVPTYAQGFTGRFVFSLDTSVSTTYLQISSLKAEDTAVYYCARSLVDYWGQGTLVTVSS
VL: DVVMTQSPLSLPVTLGQPASISCKSSQSLLYSDGKTYLSWFQQRPGQSPRRLIYLVSKLDSGVPDRFSGSGSGTDFTLKISRVEAEDVGVYYCWQGIDFHQTFGGGTKVEIK
notes: humanized 4A-21; human IgG1/kappa
B3: anti-MS4A4A antibody 4A-346 (antibody, human IgG1, V domains shown)
VH: QVQLVQSGAEVKKPGASVKVSCKASGYIFTSYGLSWVRQAPGQGLEWMGWINTYSGVPTYAQKFQGRVTMTRDTSTSTVYMELSSLRSEDTAVYYCARSLVDYWGQGTLVTVSS
VL: B2 VL with V2I, S7T, P12S, L15P, F41Y, Q42L, R44K, S48P, R50Q, R51L
notes: as for B2
B4: anti-MS4A4A antibody 4A-352 (antibody, V domains shown)
VH: B2 VH with T79A, S99T, V101A
VL: B2 VL with Q27R, D33G
notes: full human IgG
B5: anti-MS4A4A antibody 4A-337 (antibody, human IgG1, V domains shown)
VH: B2 VH
VL: B2 VL with V2I, S7T, L11S, F41L, S48P, R51L, S72A
notes: as for B2
B6: anti-MS4A4A antibody 4A-349 (antibody, human IgG1, V domains shown)
VH: B3 VH with V2I, R72L, V79T
VL: B2 VL with V2I, S7T, P12S, L15P, F41Y, Q42L, R44K, S48P, R50Q, R51L
notes: as for B2
B7: anti-MS4A4A antibody 4A-354 (antibody, V domains shown)
VH: B2 VH with T79A, S99T, V101A
VL: B2 VL with Q27R, D33A
notes: full human IgG
B8: anti-MS4A4A antibody 4A-342 (antibody, human IgG1, V domains shown)
VH: B3 VH with V2I
VL: B2 VL with S7T, P12S, L15P, F41Y, Q42L, R44K, S48P, R50Q
notes: as for B2
B9: anti-MS4A4A antibody 4A-335 (antibody, human IgG1, V domains shown)
VH: B2 VH with T79A
VL: B2 VL with S7T, L11S, F41L, S48P, R51L, S72A
notes: as for B2
B10: anti-MS4A4A antibody 4A-334 (antibody, human IgG1, V domains shown)
VH: B2 VH with T79A
VL: B2 VL with V2I, S7T, L11S, F41L, S48P, R51L, S72A
notes: as for B2
B11: anti-MS4A4A antibody 4A-343 (antibody, human IgG1, V domains shown)
VH: B3 VH with V2I, R72L, V79T
VL: B2 VL with S7T, P12S, L15P, F41Y, Q42L, R44K, S48P, R50Q
notes: as for B2
B12: anti-MS4A4A antibody 4A-355 (antibody, V domains shown)
VH: B2 VH with T79A, S99T, V101A
VL: B2 VL with Q27R, D33S
notes: full human IgG
B13: anti-MS4A4A antibody 4A-353 (antibody, V domains shown)
VH: B2 VH with T79A, S99T, V101A
VL: B2 VL with Q27R, D33E
notes: full human IgG
B14: anti-MS4A4A antibody 4A-339 (antibody, human IgG1, V domains shown)
VH: B2 VH
VL: B2 VL with S7T, L11S, F41L, S48P, S72A
notes: as for B2
B15: anti-MS4A4A antibody 4A-344 (antibody, human IgG1, V domains shown)
VH: B3 VH
VL: B2 VL with S7T, P12S, L15P, F41Y, Q42L, R44K, S48P, R50Q
notes: as for B2
B16: anti-MS4A4A antibody 4A-338 (antibody, human IgG1, V domains shown)
VH: B2 VH
VL: B2 VL with S7T, L11S, F41L, S48P, R51L, S72A
notes: as for B2
B17: anti-MS4A4A antibody 4A-348 (antibody, human IgG1, V domains shown)
VH: B3 VH with V2I
VL: B2 VL with V2I, S7T, P12S, L15P, F41Y, Q42L, R44K, S48P, R50Q, R51L
notes: as for B2
B18: anti-MS4A4A antibody 4A-336 (antibody, human IgG1, V domains shown)
VH: B2 VH with T79A
VL: B2 VL with S7T, L11S, F41L, S48P, S72A
notes: as for B2
B19: anti-MS4A4A antibody 4A-308 (antibody, human IgG1, V domains shown)
VH: QVQLVQSGAEVKKPGASVKVSCKASGYTFTNYWMQWVRQAPGQGLEWMGATHPGHGDTRYAQKFQGRVTMTADKSTSTAYMELSSLRSEDTAVYYCAREEVYYGFRSYWYFDVWGRGTLVTVSS
VL: DIVMTQSPDSLAVSLGERATINCRASESVDNYGVSFMNWYQQKPGQPPKLLIYGASNQGSGVPDRFSGSGSGTDFTLTISSLQAEDVAVYYCQQSKEVPPTFGGGTKVEIK
notes: human IgG1/kappa
B20: anti-MS4A4A antibody 4A-304 (antibody, human IgG1, V domains shown)
VH: B19 VH with A72R, K74T, A79V
VL: EIVLTQSPGTLSLSPGERATLSCRASESVDNYGVSFMNWYQQKPGQAPRLLIYGASNQGSGIPDRFSGSGSGTDFTLTISRLEPEDFAVYYCQQSKEVPPTFGGGTKVEIK
notes: human IgG1/kappa
B21: anti-MS4A4A antibody 4A-301 (antibody, human IgG1, V domains shown)
VH: B19 VH with A72R, K74T, A79V
VL: B19 VL
notes: human IgG1/kappa
B22: anti-MS4A4A antibody 4A-309 (antibody, human IgG1, V domains shown)
VH: B19 VH with M70L, T76I, S85R, E89D, A92V
VL: B20 VL with G9A, D64A, R81S
notes: human IgG1/kappa

Assays:
[1] = molecular target: FcγRIIIa receptor (V158 variant) (UniProt P08637 17-254); assay: cell-based or functional assay
Chain of FcγRIIIa receptor (V158 variant) (P08637 other isoform, or with tags, fused parts or gaps mutant limits assumed): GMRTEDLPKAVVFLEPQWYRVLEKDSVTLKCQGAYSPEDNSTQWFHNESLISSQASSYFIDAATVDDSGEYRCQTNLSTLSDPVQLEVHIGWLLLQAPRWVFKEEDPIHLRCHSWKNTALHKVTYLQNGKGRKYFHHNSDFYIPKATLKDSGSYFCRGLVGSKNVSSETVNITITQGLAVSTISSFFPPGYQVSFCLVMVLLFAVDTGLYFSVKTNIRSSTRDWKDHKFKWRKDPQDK

[2] = molecular target: T1, FcγRIIa receptor (H131 variant) (UniProt P12318 34-317, limits assumed); assay: cell-based or functional assay
T1 sequence (looked up): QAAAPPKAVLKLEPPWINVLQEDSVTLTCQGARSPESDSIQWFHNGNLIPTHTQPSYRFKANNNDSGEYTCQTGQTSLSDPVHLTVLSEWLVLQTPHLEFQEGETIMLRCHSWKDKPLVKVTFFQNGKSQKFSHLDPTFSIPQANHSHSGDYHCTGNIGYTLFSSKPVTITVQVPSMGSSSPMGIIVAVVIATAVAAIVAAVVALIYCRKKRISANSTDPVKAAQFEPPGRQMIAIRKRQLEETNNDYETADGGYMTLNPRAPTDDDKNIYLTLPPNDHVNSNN

[3] = molecular target: T2, recombinant MS4A4A soluble polypeptide JS1; assay: ELISA, 1 ug/ml antibody
T2 construct: also called JS1.His; loop grafted antigen
Method: (§1) Anti-MS4A4A antibodies of the present disclosure were tested for their ability to bind to the different recombinant MS4A4A soluble polypeptides, as described in Example 2, as follows. Nucleic acid encoding the VH and VL domains of humanized anti-MS4A4A antibodies of the present disclosure were cloned into pcDNA3.4 vector which contains either the human IgG1 heavy chain constant domain or human kappa constant domain. The humanized anti-MS4A4A antibodies were expressed in Expi293 cells and were purified by Mab select antibody purification resin (GE Healthcare Life Science, cat#17519902) following the manufacture's protocol. ELISA was performed to measure binding of anti-MS4A4A antibodies of the present disclosure the recombinant MS4A4A soluble polypeptides. 1 μg/ml biotinylated antigens were preincubated on the streptavidin-coated ELISA plates (Thermo Scientific, cat#PI15120) for 1 hour. Plates were washed 3 times, followed by the addition of antibodies (1 μg/ml, 0.33 μg/ml, and 0.11 μg/ml antibodies. Plates were incubated at room temperature with shaking for 1 hr, washed 3 times, then 1/2500 dilution of HRP conjugates goat anti human kappa antibodies added (SigmaAldrich cat#. A7164-1ML).

[4] = molecular target: T3, human MS4A4A (human, UniProt Q96JQ5 1-239); assay: FACS, U937-huMS4A4A, 5 ug/ml
Method: (§2) Anti-MS4A4A antibodies tested were either mouse IgGs purified from hybridoma supernatant or human IgG1 Fc chimeras produced recombinantly in Expi293 cells. Affinity binding to cells was determined as follows. Briefly, cells were harvested, washed, and labeled with Aqua Live/Dead for viability discrimination. After a wash with PBS, 2×10\hat{ }4 cells were aliquoted per well in 96-well U-bottom plates and incubated with 50 μL of purified anti-MS4A4A antibody at various concentrations (3× dilutions starting at 10 μg/mL) in FACS buffer (PBS+2% FBS+1 mM EDTA). After this primary incubation, the supernatant was removed via centrifugation, washed 2× with 150 μL of ice-cold FACS buffer, and incubated with the appropriate secondary antibody on ice for 15 minutes. Following the secondary antibody incubation, the cells were again washed 2× with ice-cold FACS buffer and resuspended in a final volume of 200 μL of FACS buffer. Flow cytometry analysis was performed on a FACSCanto system (BD Biosciences). Binding data was expressed as Median Fluorescent Intensity (MFI).
(§3) These experiments were performed using anti-MS4A4A antibodies at a concentration of 5 μg/ml and were assayed for cell binding by flow cytometry.

[5] = molecular target: T3, human MS4A4A; assay: FACS, U937-huMS4A4A, 5 ug/ml; remark: listed apart in the source
Method: as §2, §3

[6] = molecular target: T4, recombinant MS4A4A soluble polypeptide JS5; assay: ELISA, 1 ug/ml antibody
T4 construct: also called JS5.His
Method: as §1

[7] = molecular target: T4, recombinant MS4A4A soluble polypeptide …; assay: ELISA, 0.33 ug/ml antibody
Method: as §1

[8] = molecular target: T4, recombinant MS4A4A soluble polypeptide …; assay: ELISA, 0.11 ug/ml antibody
Method: as §1

Binder	OD450 [3]	MFI [4]	other results
B1	–	–	luminescence, ADCC reporter, 3.048316 ng/mL [1]: 338; luminescence, ADCC reporter, 9.144947 ng/mL [1]: 338; luminescence, ADCC reporter, 27.43484 ng/mL [1]: 341; luminescence, ADCC reporter, 82.30453 ng/mL [1]: 426; luminescence, ADCC reporter, 246.9136 ng/mL [1]: 508; luminescence, ADCC reporter, 740.7407 ng/mL [1]: 623; luminescence, ADCC reporter, 2,222.222 ng/mL [1]: 1020; luminescence, ADCC reporter, 6,666.667 ng/mL [1]: 1180; luminescence, ADCC reporter, 20,000 ng/mL [1]: 1220; luminescence, ADCP reporter, 3.048316 ng/mL [2]: 51; luminescence, ADCP reporter, 9.144947 ng/mL [2]: 46; luminescence, ADCP reporter, 27.43484 ng/mL [2]: 44; luminescence, ADCP reporter, 82.30453 ng/mL [2]: 66; luminescence, ADCP reporter, 246.9136 ng/mL [2]: 60; luminescence, ADCP reporter, 740.7407 ng/mL [2]: 54; luminescence, ADCP reporter, 2,222.222 ng/mL [2]: 67; luminescence, ADCP reporter, 6,666.667 ng/mL [2]: 242; luminescence, ADCP reporter, 20,000 ng/mL [2]: 154
B2	1.79	350	–
B3	0.148	56.1	–
B4	–	–	MFI [5]: 11000; ELISA OD [6]: 0.985; ELISA OD [7]: 0.885; ELISA OD [8]: 0.655
B5	1.33	218	–
B6	0.331	142	–
B7	–	–	MFI [5]: 13700; ELISA OD [6]: 0.98; ELISA OD [7]: 0.874; ELISA OD [8]: 0.701
B8	1.09	538	–
B9	1.66	286	–
B10	1.53	296	–
B11	1.37	513	–
B12	–	–	MFI [5]: 13400; ELISA OD [6]: 0.961; ELISA OD [7]: 0.878; ELISA OD [8]: 0.721
B13	–	–	MFI [5]: 10400; ELISA OD [6]: 0.996; ELISA OD [7]: 0.85; ELISA OD [8]: 0.63
B14	1.76	284	–
B15	0.719	427	–
B16	1.65	222	–
B17	0.131	47.8	–
B18	1.7	309	–
B19	0.12	97.2	–
B20	0.11	112	–
B21	0.116	89.7	–
B22	0.115	131	–
